Measured values from publication PMC6561178, “Caulobacter crescentus Hfq structure reveals a conserved mechanism of RNA annealing regulation”.

T1: Cc78 (Caulobacter crescentus NA1000, UniProt B8GW92 1-78, del79-82)
T1 sequence: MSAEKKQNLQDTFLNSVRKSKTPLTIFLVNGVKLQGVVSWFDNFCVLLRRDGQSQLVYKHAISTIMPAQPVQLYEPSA


Tests used:
EcCc Hfq [1] = biological target: T2, EcCc Hfq (Escherichia coli / Caulobacter …, UniProt P0A6X3 1-67+B8GW92:71-82, internal_change); experiment: EMSA; Hill n 1.6; EMSA: 34 mM Tris-HCl pH 7.5, 50 mM NaCl, 50 mM KCl, 50 mM NH4Cl, 11.4 mM EDTA, 12% glycerol, 30 C, 30 min, ~1 nM 32P-RNA, Kd in Hfq6; anisotropy: 10 mM Tris-HCl; details: protein: recombinant; tags: untagged; chain copies: 6; label: 32P; stem-loops
Ec65 [2] = biological target: T3, Ec65 (Escherichia coli, UniProt P0A6X3 1-65, del66-102); experiment: as above; details: protein: recombinant; tags: untagged; chain copies: 6; label: 32P; stem-loops
Cc78 [3] = biological target: T1, Cc78; experiment: EMSA; Hill n 1.4; EMSA: 34 mM Tris-HCl pH 7.5, 50 mM NaCl, 50 mM KCl, 50 mM NH4Cl, 11.4 mM EDTA, 12% glycerol, 30 C, 30 min, ~1 nM 32P-RNA, Kd in Hfq6; anisotropy: 10 mM Tris-HCl; details: protein: recombinant; tags: untagged after self-cleaved intein; chain copies: 6; label: 32P; stem-loops
Ec Hfq (Hfq102) [4] = biological target: T4, Ec Hfq (Hfq102) (Escherichia coli, UniProt P0A6X3 1-102); experiment: EMSA; Hill n 1.0; Tris-glycine gel; EMSA: 34 mM Tris-HCl pH 7.5, 50 mM NaCl, 50 mM KCl, 50 mM NH4Cl, 11.4 mM EDTA, 12% glycerol, 30 C, 30 min, ~1 nM 32P-RNA, Kd in Hfq6; anisotropy: 10 mM Tris-HCl; details: protein: recombinant; tags: untagged; chain copies: 6; label: 32P; stem-loops
Ec Hfq (Hfq102) [5] = biological target: T4, Ec Hfq (Hfq102); experiment: EMSA; Hill n 8.2; Tris-glycine gel; EMSA: 34 mM Tris-HCl pH 7.5, 50 mM NaCl, 50 mM KCl, 50 mM NH4Cl, 11.4 mM EDTA, 12% glycerol, 30 C, 30 min, ~1 nM 32P-RNA, Kd in Hfq6; anisotropy: 10 mM Tris-HCl; details: protein: recombinant; tags: untagged; chain copies: 6; label: 32P; stem-loops
Ec65 [6] = biological target: T3, Ec65; experiment: EMSA; Hill n 1.0; EMSA: 34 mM Tris-HCl pH 7.5, 50 mM NaCl, 50 mM KCl, 50 mM NH4Cl, 11.4 mM EDTA, 12% glycerol, 30 C, 30 min, ~1 nM 32P-RNA, Kd in Hfq6; anisotropy: 10 mM Tris-HCl; details: protein: recombinant; tags: untagged; chain copies: 6; label: 32P; stem-loops
EcCc Hfq [7] = biological target: T2, EcCc Hfq; experiment: EMSA; Hill n 5.1; EMSA: 34 mM Tris-HCl pH 7.5, 50 mM NaCl, 50 mM KCl, 50 mM NH4Cl, 11.4 mM EDTA, 12% glycerol, 30 C, 30 min, ~1 nM 32P-RNA, Kd in Hfq6; anisotropy: 10 mM Tris-HCl; details: protein: recombinant; tags: untagged; chain copies: 6; label: 32P; stem-loops
Cc78 [8] = biological target: T1, Cc78; experiment: EMSA; Hill n 1.3; EMSA: 34 mM Tris-HCl pH 7.5, 50 mM NaCl, 50 mM KCl, 50 mM NH4Cl, 11.4 mM EDTA, 12% glycerol, 30 C, 30 min, ~1 nM 32P-RNA, Kd in Hfq6; anisotropy: 10 mM Tris-HCl; details: protein: recombinant; tags: untagged after self-cleaved intein; chain copies: 6; label: 32P; stem-loops

Binder	Kd (EcCc Hfq [1]) [nM]	Kd (Ec65 [2]) [nM]	Kd (Cc78 [3]) [nM]	Kd (Ec Hfq (Hfq102) [4]) [nM]	Kd (Ec Hfq (Hfq102) [5]) [nM]	Kd (Ec65 [6]) [nM]	Kd (EcCc Hfq [7]) [nM]	Kd (Cc78 [8]) [nM]
ChvR (structured_RNA) RNA: GGCGGGGCCUACAUGUCGCGCAAGUCUCCGGAGGGCCAUUCCGAGGCGGGGCCCGCUCCAGCGUCCUCAUUGGAGCGGGCGUCU	228 ± 84	20.2 ± 0.3	256 ± 25	17.2 ± 1				
R157 (structured_RNA) RNA: GGUGAGGCGCCGAGCGCCUCUGCCCUUCCUGGGCGUUUCCUCCCUAUGACUUUGUAGCCCGGUCUUCAUGGCCGGGCUUUCUUUUU					14.3 ± 0.1	6.3 ± 1.1	55.7 ± 2.7	349 ± 7
